No end group written: not given here. enterokinase site = enterokinase site: N-terminal 6xHis-tag carrying an enterokinase cleavage site; factor Xa site = factor Xa site: N-terminal 6xHis-tag carrying a factor Xa cleavage site
B1: Vm24 (Tag-Vm24) (peptide)
chain: {6xHis tag-factor Xa site}-AAAISCVGSPECPPKCRAQGCKNGKCMNRKCECYYC
modifications: disulfide (positions not given here); ends not checked
B2: Ts6 (Tag-Ts6) (peptide)
chain: {6xHis tag-enterokinase site}-WCSTCLDLACGASRECYDPCFKAFGRAHGKCMNNKCRCYT
modifications: disulfide (positions not given here); ends not checked
B3: Ts6 (Untag-Ts6) (peptide)
chain: WCSTCLDLACGASRECYDPCFKAFGRAHGKCMNNKCRCYT
B4: Anuroctoxin (Untag-AnTx) (peptide)
chain: QKECTGPQHCTNFCRKNKCTHGKCMNRKCKCFNCK
B5: Anuroctoxin (Tag-AnTx) (peptide)
chain: B4 chain
modifications: N-terminal 6xHis-tag with enterokinase site

Target: Kv1.3 (Homo sapiens, UniProt P22001)
Sequence (P22001 whole entry): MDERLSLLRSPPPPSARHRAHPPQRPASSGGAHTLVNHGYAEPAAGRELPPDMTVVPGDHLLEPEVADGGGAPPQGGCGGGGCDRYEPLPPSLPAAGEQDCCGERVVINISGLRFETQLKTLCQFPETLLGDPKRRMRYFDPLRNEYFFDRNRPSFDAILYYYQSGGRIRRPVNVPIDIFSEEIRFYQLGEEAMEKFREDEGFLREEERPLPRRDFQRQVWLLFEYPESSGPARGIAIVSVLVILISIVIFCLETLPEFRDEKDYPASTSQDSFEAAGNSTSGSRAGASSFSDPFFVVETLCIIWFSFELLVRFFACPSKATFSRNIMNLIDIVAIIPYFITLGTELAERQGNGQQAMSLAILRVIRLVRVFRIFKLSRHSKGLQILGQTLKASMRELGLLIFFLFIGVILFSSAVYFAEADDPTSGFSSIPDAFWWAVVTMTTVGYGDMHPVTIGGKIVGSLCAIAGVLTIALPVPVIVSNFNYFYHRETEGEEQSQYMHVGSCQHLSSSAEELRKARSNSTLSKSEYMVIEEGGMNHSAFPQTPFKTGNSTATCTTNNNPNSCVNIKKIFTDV
Assay: whole-cell patch clamp

Row | Binder | Kd [nM]
1 | B1 | 0.0044
2 | B2 | 887
3 | B3 | 29.1
4 | B4 | 0.72
5 | B5 | 1.29
